Paper PMC5342242, “Altering the N-terminal arms of the polymerase manager protein UmuD modulates protein interactions” (PLoS ONE, 2017)
Substitutions are numbered along the chain they refer to. In names and notes the source's numbering stands.

B1: UmuD 8 S60A (domain or fragment, E. coli, UniProt P0AG11 8-139, looked up)
chain: DLREIVTFPLFSDLVQCGFPSPAADYVEQRIDLNQLLIQHPSATYFVKASGDAMIDGGISDGDLLIVDSAITASHGDIVIAAVDGEFTVKKLQLRPTVQLIPMNSAYSPITISSEDTLDVFGVVIHVVKAMR
notes: UmuD, E. coli, lacking the N-terminal 7 residues (Δ1–7) of the 139-residue full-length protein; non-cleavable active-site variant S60A; Plasmid pSG5 derivative; also called UmuD Δ1–7 S60A; source: constructed in pSG5, expressed and purified as previously described [33, 34]
B2: UmuD 3A (natural protein, E. coli, UniProt P0AG11 1-139, looked up)
chain: MLFIKPADLREIVAFPAASDLVQCGFPSPAADYVEQRIDLNQLLIQHPSATYFVKASGDSMIDGGISDGDLLIVDSAITASHGDIVIAAVDGEFTVKKLQLRPTVQLIPMNSAYSPITISSEDTLDVFGVVIHVVKAMR
notes: UmuD, E. coli, full-length arms, three alanine mutations T14A L17A F18A; also called UmuD T14A L17A F18A; source: purified; not further stated
B3: wild-type UmuD (natural protein, E. coli, UniProt P0AG11 1-139, looked up)
chain: B2 chain with A14T, A17L, A18F
notes: UmuD, E. coli, full-length, 139 residues; also called WT UmuD; full-length UmuD; source: purified; expression from pSG5 as previously described [33, 34]
B4: UmuD S60A (natural protein, E. coli, UniProt P0AG11 1-139, looked up)
chain: B2 chain with A14T, A17L, A18F, S60A
notes: UmuD, E. coli, full-length 139 residues, non-cleavable active-site variant S60A; also called full-length UmuD-S60A; active site variant UmuD S60A; source: purified; expression from pSG5 as previously described [33, 34]
B5: UmuD S60A C24A A7C (natural protein, E. coli, UniProt P0AG11 1-139, looked up)
chain: B2 chain with A7C, A14T, A17L, A18F, C24A, S60A
notes: UmuD, E. coli, with the full-length arm; single cysteine moved from position 24 to position 7; S60A; also called UmuD A7C C24A S60A; source: purified; not further stated
B6: UmuD 18 S60A (domain or fragment, E. coli, UniProt P0AG11 18-139, looked up)
chain: FSDLVQCGFPSPAADYVEQRIDLNQLLIQHPSATYFVKASGDAMIDGGISDGDLLIVDSAITASHGDIVIAAVDGEFTVKKLQLRPTVQLIPMNSAYSPITISSEDTLDVFGVVIHVVKAMR
notes: UmuD, E. coli, lacking the N-terminal 17 residues (Δ1–17) of the 139-residue full-length protein; non-cleavable active-site variant S60A; Plasmid pSG5 derivative; also called UmuD Δ1–17 S60A; source: constructed in pSG5, expressed and purified as previously described [33, 34]

Target: the molecule itself
Test: cross-linking; 10 mM bis(maleimido)hexane (BMH), 40 μM protein, 10 min at room temperature; cross-linked dimers seen by Coomassie-stained SDS-PAGE
Settings: not given

Point of comparison: B4, percent cross-linked dimers 31%. Against it:
- B1 — higher, 32%
- B2 — higher, 41%
- B3 — lower, 25%
- B5 — higher, 71%
- B6 — higher, 39%

What follows are binders tested against T1, DNA polymerase III α subunit, full-length (E. coli, UniProt P10443 1-1160, in the FRET assay only: labeled with Alexa Fluor 647 C2-maleimide) (assay: other fluorescence titration; intrinsic tryptophan fluorescence of α; UmuD titrated into a solution of α; equilibrium Kd). Settings: both partners purified.
T1 construct: α polymerase subunit of DNA polymerase III, E. coli, full-length; Unlabelled in the tryptophan fluorescence titration; also called pol III α; full-length α; source: purified; as previously described [21]
T1 sequence (P10443 whole entry): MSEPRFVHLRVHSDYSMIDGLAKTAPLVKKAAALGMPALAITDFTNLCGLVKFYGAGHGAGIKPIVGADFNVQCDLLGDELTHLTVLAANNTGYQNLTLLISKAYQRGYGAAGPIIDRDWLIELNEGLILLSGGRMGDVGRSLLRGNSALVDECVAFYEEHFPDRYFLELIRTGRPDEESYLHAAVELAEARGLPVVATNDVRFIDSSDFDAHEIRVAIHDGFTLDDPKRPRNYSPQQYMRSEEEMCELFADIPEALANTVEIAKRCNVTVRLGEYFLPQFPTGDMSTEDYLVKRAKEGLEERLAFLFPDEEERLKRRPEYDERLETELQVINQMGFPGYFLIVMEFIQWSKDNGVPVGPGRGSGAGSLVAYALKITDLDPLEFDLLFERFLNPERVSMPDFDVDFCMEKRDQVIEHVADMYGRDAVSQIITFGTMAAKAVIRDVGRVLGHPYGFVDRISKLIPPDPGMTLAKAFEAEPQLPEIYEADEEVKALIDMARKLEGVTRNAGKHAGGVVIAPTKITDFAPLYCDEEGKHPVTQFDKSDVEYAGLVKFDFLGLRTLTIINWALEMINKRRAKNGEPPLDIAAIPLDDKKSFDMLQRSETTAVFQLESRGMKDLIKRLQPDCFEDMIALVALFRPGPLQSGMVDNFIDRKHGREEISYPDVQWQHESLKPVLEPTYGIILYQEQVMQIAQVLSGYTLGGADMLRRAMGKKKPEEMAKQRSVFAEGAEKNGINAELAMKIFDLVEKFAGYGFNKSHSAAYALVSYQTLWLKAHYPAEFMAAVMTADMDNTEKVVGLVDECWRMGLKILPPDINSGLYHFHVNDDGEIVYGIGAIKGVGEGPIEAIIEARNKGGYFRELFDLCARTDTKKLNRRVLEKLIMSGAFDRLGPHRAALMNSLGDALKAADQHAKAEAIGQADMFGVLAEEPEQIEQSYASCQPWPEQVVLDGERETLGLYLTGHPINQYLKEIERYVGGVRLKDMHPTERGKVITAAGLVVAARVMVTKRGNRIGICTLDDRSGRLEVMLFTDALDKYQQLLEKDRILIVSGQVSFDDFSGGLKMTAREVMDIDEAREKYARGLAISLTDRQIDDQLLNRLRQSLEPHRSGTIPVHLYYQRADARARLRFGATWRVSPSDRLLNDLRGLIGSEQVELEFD

Point of comparison: B6, Kd 12.2 ± 0.2 µM. Against it:
- B1 — 1.5-fold lower, 8.1 ± 0.9 µM

The binders below were run against T2, DNA polymerase III α subunit truncation α917–1160 (E. coli, UniProt P10443 917-1160) in the same assay as above. Settings: both partners purified.
T2 construct: α polymerase subunit of DNA polymerase III, E. coli, residues 917–1160; also called C-terminal fragment of α; source: described previously [21]
T2 sequence (P10443 917-1160): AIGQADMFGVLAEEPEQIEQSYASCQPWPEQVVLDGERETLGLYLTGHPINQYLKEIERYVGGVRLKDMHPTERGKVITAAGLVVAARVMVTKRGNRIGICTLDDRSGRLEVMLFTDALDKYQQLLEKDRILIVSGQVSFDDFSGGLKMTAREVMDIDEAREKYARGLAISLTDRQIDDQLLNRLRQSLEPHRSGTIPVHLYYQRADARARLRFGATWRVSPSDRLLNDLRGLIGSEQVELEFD

Point of comparison: B1, Kd 0.2 ± 0.4 µM. Against it:
- B6 — 18-fold higher, 3.6 ± 0.4 µM

These binders were tested against T3, DNA polymerase III α subunit truncation α1–280 (E. coli, UniProt P10443 1-280) in the same assay as above. Settings: both partners purified.
T3 construct: α polymerase subunit of DNA polymerase III, E. coli, residues 1–280; also called N-terminal domain of α; PHP domain; source: described previously [21]
T3 sequence (P10443 1-280): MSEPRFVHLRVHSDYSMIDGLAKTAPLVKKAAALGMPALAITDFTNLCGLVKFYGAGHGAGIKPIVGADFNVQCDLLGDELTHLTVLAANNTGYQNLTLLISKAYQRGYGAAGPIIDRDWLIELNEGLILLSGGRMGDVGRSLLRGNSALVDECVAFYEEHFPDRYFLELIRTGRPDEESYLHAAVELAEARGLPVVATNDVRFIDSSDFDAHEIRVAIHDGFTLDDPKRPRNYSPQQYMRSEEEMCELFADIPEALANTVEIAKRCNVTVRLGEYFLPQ

Point of comparison: B1, Kd 3.5 ± 0.8 µM. Against it:
- B6 — 1.7-fold higher, 5.9 ± 0.9 µM
